This data set in a line: amyloid nucleation score (Sup35N fusion, yeast selection) (log enrichment); library NNK2; higher = more nucleation; inactive = no reads after selection. Put shortly:
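DiMSum was used to calculate nucleation scores as log enrichment of output over input reads, centred on the mode score of non-aggregating sequences. Sequences with fewer than 100 input reads were not scored. Input and output came from Illumina sequencing of plasmid inserts in psi-negative yeast expressing peptides of 20 random codons fused to Sup35N, induced 24 hours with 100 μM copper sulfate and then grown 7 days at 30°C on medium lacking adenine and uracil.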

± gives the uncertainty stated by the source.

In turn, RVLISQGLMYISHTMSG came in with an amyloid nucleation score of 5.337 ± 0.044.
As for GLRQVGA, the figure is -0.34 ± 0.79.
As for LKTGSF, the entry is “inactive”; as for TLDVGLGAAQCVIGISGWYE, 1.1 ± 0.15.
The figure for ELFQIAVTRTKFLLVQSSYS is 1.27 ± 0.18.
PMSFTLNRRQRRLHMLRTNN displayed an amyloid nucleation score of 0.854 ± 0.43.
The figure for IDLWWSATHVTLLLSAPGIY is -1.09 ± 0.42; for KSINNC it is 0.181 ± 0.26.
The substance RFKSNNRPCWHCHPLLGFRT had an amyloid nucleation score of 1.06 ± 0.43.
The figure for SKSAPC is 0.39 ± 0.29; for IRMNIFASSTR it is 3.11 ± 0.073.
The figure for MANYYLCFYFVLVMRQMKFT is -1.18 ± 0.62; for WDLLHYFDLF it is 0.232 ± 0.56; for LNFGMY it is -0.772 ± 0.78.
The figure for IMNSQVVGSFHA is -0.357 ± 0.37; for CMLCARLHH it is 4.13 ± 0.056; for NLGDVSYTSSFG it is 1.31 ± 0.43.
VAYLTFLWNQYAVRARKRLP had an amyloid nucleation score of -0.085 ± 0.35.
The figure for RWYSTRCTVEFINATSIVRA is -0.531 ± 1.1; for IWPSRSGCVSVASVRI it is 0.98 ± 0.33.
The figure for YPCPAVVCSYAA is 0.705 ± 0.44; for YLCYNALNDFD it is -0.445 ± 0.41; for QLVPRHNGTAKGCSGPLTRV it is 0.402 ± 0.26.
As for STVELEQYGSSARADYLVWR, the figure is 0.58 ± 0.64; as for YVYEIDYSRFQFCARWVGWA, 0.597 ± 0.48.
Take MLRNWLCRY: the amyloid nucleation score came out at 2.02 ± 0.42.
As for SDIVNMGEVLVLGDSYWREG, the figure is -0.449 ± 0.63; as for ASILMSRKTMGSNRHCSFVG, 0.345 ± 0.3; as for ISRIIVPDSRLAYGEWFEIV, 1.53 ± 0.58.
The figure for AFQWYLM is -0.693 ± 0.18; for NMFRIVASTY it is 0.598 ± 0.47.
The figure for TGRLSIVAKNYWGHSVRAFS is 0.001 ± 0.76.
WFACYMRIAGTGQEVMYVTM showed an amyloid nucleation score of 0.424 ± 0.24.
The entry for MISCSLSFSLAPQDELRSCK is “inactive”; for YWFFNWEWSGLVVYVGRFSA it is “inactive”.
As for CTHNTSKVSKMVIVCPRFNL, the figure is 6.218 ± 0.035.
The figure for GLKTMLY is -0.227 ± 0.27; for IAVAKYLTLKDVVLNSWNSY it is 7.624 ± 0.036; for QVLCIVLDTSMIGTKACLGV it is 0.325 ± 0.57.
Substance TYVLSGEGEIKA gave an amyloid nucleation score of 1.54 ± 0.33.
The entry for FHSPLCSCQSSLKVEWGHSE is “inactive”; for WTGGFSLQSVHCNQN it is -0.393 ± 1.1; for SLLSWRFVFCCMEYRVFLVV it is “inactive”.
As for TRAPGRDFVGEGEACALDET, the figure is -0.799 ± 0.54.
The figure for VYNLN is -0.181 ± 0.41; for FIADLSDMW it is -0.916 ± 1.1; for NMNLVILDTHN it is 2.86 ± 0.13.
The substance VESLFGYW gave an amyloid nucleation score of -0.889 ± 1.1.
As for PYYTIVMFAFYGLLTVRMGI, the amyloid nucleation score amounted to 0.706 ± 0.4.
Substance SVAFILVPNEWLVKRAASSG gave an amyloid nucleation score of -0.264 ± 0.45.
Substance LVSVLGSTFLGSAWDTEGWY registered an amyloid nucleation score of -0.579 ± 0.5.
The figure for YLQYPYCSSKSFARDDLVKY is 0.173 ± 0.79; for FGVIICAMSCQKD it is 7.501 ± 0.026.
As for RFRHNKWYCLLRLAG, the figure is 0.956 ± 0.33; as for EKTFRFADYLMCPASSRSSV, -0.082 ± 0.4.
The figure for LVFVAGRILMMIFFVSGLAI is 2.59 ± 0.09.
On to RCELSRRGTSLRTWRWARNG, for which the amyloid nucleation score amounted to 1.46 ± 0.17.
As for LMHSQCSFSNELYVDSEARG, the figure is 0.093 ± 0.38; as for TYGLVTRTGAV, 0.247 ± 0.43.
Substance WWNTGCVGLMCICTLFSGSR showed an amyloid nucleation score of 8.985 ± 0.081.
The figure for YKVLTSPRFKEDPFLYGCWI is -0.353 ± 0.53; for VIPKHESISILFPAVYPPFE it is 0.031 ± 0.23; for FKSTNLMAWIFGMYIVFLGF it is -0.08 ± 1.
As to YMYLVVCLIVSHDPVSVVEW, the amyloid nucleation score result is “inactive”.
As for YGHLRVWKIPS, the figure is 0.655 ± 0.65.
The figure for RCKWVRGVSRMPNHWN is 0.779 ± 0.4; for LVGDLVVGYGMCRKGVVR it is 5.03 ± 0.079; for HQRGMNLISFVWHSENVRIW it is 1.07 ± 0.61.
As to FIYLIMFCKMVQWTIAFFKA, the amyloid nucleation score was -0.658 ± 0.64.
The figure for STAFFSIIIVFFISTCRETP is -0.78 ± 0.63; for EHVFMSAHFLLNSQRKKN it is -1.9 ± 0.75.
The figure for HVTRVSVLQVLELHSTMTGV is 4.09 ± 0.09.
For the substance LSSFDSF, the amyloid nucleation score entry was “inactive”.
The substance SEFPIVQLCIAWDKLCKHLY showed an amyloid nucleation score of -0.179 ± 0.26.
The substance EVVAISNTASICLYSNYKH gave an amyloid nucleation score of 5.04 ± 0.1.
In turn, TFIAMSQALMTVYIGALLQW yielded an amyloid nucleation score of 3.57 ± 0.061.
As for SGWELYP, the figure is 1.91 ± 0.11.
In turn, RIRSCTLMWT yielded an amyloid nucleation score of 0.807 ± 0.22.
The figure for VNFNQSRCVDYVGILVIGG is -0.248 ± 0.28.
The figure for ILVEGET is -0.263 ± 0.33; for IMNMCISDKFSIVVSSYVRY it is 0.958 ± 0.36.
As for NCNFSLEGHYCTFIKFHWTV, the figure is 3.23 ± 0.097.
VSSLMMVGNRFLIISWTESV yielded an amyloid nucleation score of 2.55 ± 0.092.
The figure for FNDRKYESCDSDDC is -1.99 ± 0.62; for ADYLRDSFQRWLMEVGLDRR it is 1.44 ± 0.26.
Turning to LMKNEFSRYHTSCVVRGNSL, the amyloid nucleation score was determined as 0.334 ± 0.28.
VFIMGPTS returned an amyloid nucleation score of 3.96 ± 0.092.
The figure for KCVVRAVA is 2.23 ± 0.24.
As for TYVHNKVCKNACNFSTLGPC, the figure is 0.143 ± 0.8; as for NILAMKLFVNKFHVIFDEFL, 0.097 ± 1.1.
The figure for RFWDQACQAFMSSMVEGPVD is -0.548 ± 1.1.
As for TWKVDF, the amyloid nucleation score entry was “inactive”.
The figure for LLGTFYTS is -1 ± 1.1; for CSLFLWGLMDLLV it is “inactive”; for VFPMVFTKGNANVCHI it is 0.886 ± 0.58.
The figure for YLNSYNSC is -1.31 ± 1; for SHCTLKNLV it is -0.27 ± 1.1; for QDCKAISSCLFRLLPELSLR it is -0.92 ± 1.1.
For the substance VTGRAFNVTHGDAVEI, the amyloid nucleation score was 0.299 ± 0.39.
As for KALFLCILMLSASAFQEECH, the figure is 4.47 ± 0.085; as for LRVPIR, 0.077 ± 0.28.
As for HKRHTLK, the figure is -0.809 ± 1.1.
On to LVYCSLLNLILWMSAYI, for which the amyloid nucleation score is -0.518 ± 0.45.
As for YYFFCVNGGHDMGAILNMLW, the figure is 6.94 ± 0.086.
As for SWTCHGGNLYS, the amyloid nucleation score was found to be 0.222 ± 0.8.
PSYMACSA displayed an amyloid nucleation score of -0.187 ± 0.56.
The figure for GWKDGLAASSF is 1.01 ± 0.2; for HHAHGFRPIGMCSCISMDPS it is 7.87 ± 0.059.
For the substance NIRVNDCVRHPSGDVQARVS, the amyloid nucleation score is -0.014 ± 0.35.
The figure for VNNGSMFSRGDWCVVLYPTW is 3.45 ± 0.077; for NITLYFKRSLDLFGEPMWTQ it is 1.53 ± 0.16.
With FVTCYKLWMAFYTMVQSRKS, the amyloid nucleation score is 1.17 ± 0.48.
As for VGSGRLTWT, the figure is 0.917 ± 0.28; as for VLWLADLSR, 0.113 ± 0.8.
As for VHSNCSLNGPCMPMCVRRRW, the figure is 0.302 ± 0.56.
Substance HHGQTHHLMWNWIF displayed an amyloid nucleation score of 4.27 ± 0.1.
The figure for VESMILSRYLHHILRGNSLC is -1.15 ± 1.1.
SCYRIWIMILVIGFSLNRRL showed an amyloid nucleation score of -0.208 ± 0.2.
As for FRNFELSRTFVVYNPVLQCY, the figure is -0.473 ± 0.39.
The substance TITHLSNACTYMVDIRSFTF returned an amyloid nucleation score of 5.38 ± 0.068.
The entry for IAPLWPYLNPYRVIFF is “inactive”; for RGRAFGPEIRNKSLGLTYPV it is 0.282 ± 0.21; for YMKVGFARWMGRPG it is 3.89 ± 0.06.
For KYENYLCITFMGCLLGMRSE, the amyloid nucleation score result is “inactive”.
As for HKLCGYIYIRVIRSWKWYKQ, the figure is -0.306 ± 0.63; as for HLYCRALILLVVLPGYTQLL, -1.07 ± 0.78.
The figure for ISSSSKVD is -0.706 ± 0.29.
As for MFNCTQSVLPLGF, the entry is “inactive”.
For the substance GICHWGLLFTACFIPWRMRG, the amyloid nucleation score stood at 1.37 ± 0.32.
As for LFARLLLHYVTS, the figure is 9.204 ± 0.08.
YSVGCCLRYYRSN returned an amyloid nucleation score of 0.661 ± 0.8.
The figure for RFYVGTIFSPYILLSSTECM is 3.82 ± 0.06; for FISMNLEVSN it is -0.26 ± 1; for KLSLNVLGSRSERWLLLFSC it is -0.291 ± 0.79.
As for GGYGLICCYQMLEDSTKDMM, the figure is -0.603 ± 1.1.
IWGPVLYIMSGYSSVVTRF came in with an amyloid nucleation score of 6.561 ± 0.055.
The figure for PAVWVN is -0.34 ± 0.56.
AYMVDLYYTVWPGIVLLYM gave an amyloid nucleation score of 0.152 ± 0.44.
The figure for HDGICSNSGVVSINKNGNYD is 1.27 ± 0.29; for VSRAFNFSRCRRKISPALQC it is 0.135 ± 0.33.
The figure for EESYLSHGL is 1.22 ± 0.61; for KWVGWMWGYEGSLWSSNLWR it is 0.242 ± 0.77.

The values above are taken from the supplement of paper PMC12042874.
